Holding throughout (experiment): receptor-Fc IP
In assay [1] the target is T1, VEGFR-3-Fc (human, UniProt P35916 25-328).
T1 construct: domain: first three Ig domains; used as conditioned supernatant of 293T cells; also called VEGFR-3-Fc fusion protein; not shown: Fc fragment of the pIg vector
T1 sequence (looked up): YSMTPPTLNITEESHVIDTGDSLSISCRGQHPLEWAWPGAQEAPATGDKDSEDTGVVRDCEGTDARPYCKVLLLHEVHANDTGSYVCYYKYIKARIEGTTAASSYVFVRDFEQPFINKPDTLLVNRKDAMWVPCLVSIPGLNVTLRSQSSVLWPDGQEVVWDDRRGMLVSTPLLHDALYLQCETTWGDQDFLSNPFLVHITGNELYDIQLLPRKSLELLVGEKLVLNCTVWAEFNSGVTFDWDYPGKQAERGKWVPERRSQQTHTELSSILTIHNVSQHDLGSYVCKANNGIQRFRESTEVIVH
The method, then: (§1) The binding assay procedure was identical to the immunoprecipitation using pentahistidine antibody described in Example 2, apart from the composition of the immunoprecipitation (IP) mixes. The IP mixes used for the receptor binding analysis were as follows: For VEGFR-1 binding assays, the IP mix was phosphate buffered saline (PBS) containing 1.5% BSA, 0.06% Tween 20, 3 μg/ml heparin and 400 ng/ml VEGFR-1-Fc fusion protein (100 μl of this IP mix was added to 200 μl of sample supernatant); for VEGFR-2 binding assays, the IP mix was 82% conditioned cell supernatant from 293T cells transiently expressing VEGFR-2-Fc fusion protein in mixture with 18% of a PBS solution that contained 5% BSA, 0.2% Tween 20, and 10 μg/ml heparin (250 μl of IP mix was added to 200 μl of sample supernatant); and for VEGFR-3 binding assays, the IP mix was 82% conditioned cell supernatant from 293T cells transiently expressing VEGFR-3-Fc fusion protein, 18% of PBS containing 5% BSA, 0.2% Tween 20, and 10 μg/ml heparin (250 μl of IP mix was added to 200 μl of sample supernatant).

The target in assay [2] is T2, VEGFR-2-Fc (human, UniProt P35968 20-322).
T2 construct: domain: first 3 Ig domains; used as conditioned supernatant of 293T cells; also called VEGFR-2-Fc fusion protein; not shown: Fc fragment of the pIg vector
T2 sequence (P35968 20-322): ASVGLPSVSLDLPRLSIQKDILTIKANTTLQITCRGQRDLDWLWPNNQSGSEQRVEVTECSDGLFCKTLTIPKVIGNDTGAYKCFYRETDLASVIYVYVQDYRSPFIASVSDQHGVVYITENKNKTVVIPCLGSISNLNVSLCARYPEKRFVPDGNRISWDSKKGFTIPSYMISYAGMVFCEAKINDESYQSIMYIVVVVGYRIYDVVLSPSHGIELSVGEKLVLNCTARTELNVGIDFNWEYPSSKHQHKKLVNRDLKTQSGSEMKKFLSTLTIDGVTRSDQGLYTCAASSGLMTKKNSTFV
The protocol: as §1

Assay [3] has as its target T3, VEGFR-1-Fc (human, UniProt P17948 27-331).
T3 construct: domain: first three Ig domains; expressed in Drosophila S2 cells, purified on Protein A sepharose; also called VEGFR-1-Fc fusion protein; not shown: Fc fragment from the Signal-pIgPlus vector
The method, then:
as §1

T3 sequence (P17948 27-331): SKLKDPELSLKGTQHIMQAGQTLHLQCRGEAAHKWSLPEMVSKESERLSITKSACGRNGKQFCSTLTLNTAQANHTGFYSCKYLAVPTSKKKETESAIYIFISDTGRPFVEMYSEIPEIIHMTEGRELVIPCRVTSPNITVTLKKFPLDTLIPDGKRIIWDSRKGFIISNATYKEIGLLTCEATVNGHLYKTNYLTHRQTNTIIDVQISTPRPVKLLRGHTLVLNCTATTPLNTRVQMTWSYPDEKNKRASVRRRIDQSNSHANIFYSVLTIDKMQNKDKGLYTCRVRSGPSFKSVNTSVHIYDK

B1: 12-13 (ligand)
chain: GQNHHEVVKFMDVYQRSYCHPIETLVDIFQEFGVATNTFFKPPCVSVYRCGGCCNDEGLECVPTEESNITMQIMRITVPLSQGPKPVTISFANHTSCRCMSKLN
On to B1, for which the binding result in assay [1] is listed as “binds”; in assay [2], “no binding”; in assay [3] it was “binds”.

B2: 12-15 (ligand)
chain: GQNHHEVVKFMDVYQRSYCHPIETLVDIFQEFGVATNTFFKPPCVSVYRCGGCCNSEGLQCVPTEESNITMQIMRITVPLSQGPKPVTISFANHTSCRCMSKLD
Take B2: the binding result in assay [1] is recorded as “binds”; in assay [2], “binds”; in assay [3], “no binding”.

B3: 12-14 (ligand)
chain: GQNHHEVVKFMDVYQRSYCHPIETLVDIFQEFGVATNTFFKPPCVSVYRCGGCCNDEGLECMNTSTSYLSKTLFEITVPLSQGPKPVTISFANHTSCRCMSKLD
B3: the binding result was “binds” in assay [1], “no binding” in assay [2] and “no binding” in assay [3].

B4: 61-14 (ligand)
chain: GQNHHEVVKFMDVYQRSYCHPREVCIDVGKEYPDEIEYIFKPSCVPLMRCGGCCNDEGLECMNTSTSYLSKTLFEITVPLSQGPKPVTISFANHTSCRCMSKLD
As for B4, the binding result in assay [1], in assay [2] and in assay [3] was “no binding” in each case.

B5: 22-16 (ligand)
chain: AHYNTEILKSIDNEWRKTQCMPREVCIDVGKEFGVATNTFFKPPCVSVYRCGGCCNSEGLQCMNTSTSYLSKTLFEITVPLSQGPKPVTISFANHTSCRCMSKLD
Turning to B5, the binding result is recorded as “binds” in assay [1], “binds” in assay [2] and “no binding” in assay [3].

B6: 83-15 (ligand)
chain: AHYNTEILKFMDVYQRSYCHPIETLVDIFQEYPDEIEYIFKPPCVSVYRCGGCCNSEGLQCVPTEESNITMQIMRITVPLSQGPKPVTISFANHTSCRCMSKLD
With B6, the binding result in assay [1] is on record as “no binding”; in assay [2] it was “binds”; in assay [3], “binds”.

B7: 82-13 (ligand)
chain: AHYNTEILKFMDVYQRSYCHPIETLVDIFQEFGVATNTFFKPPCVSVYRCGGCCNDEGLECVPTEESNITMQIMRITVPLSQGPKPVTISFANHTSCRCMSKLD
Turning to B7, the results for the binding result in assay [1], in assay [2] and in assay [3] were “binds”, “no binding” and “binds”, respectively.

B8: 82-9 (ligand)
chain: AHYNTEILKFMDVYQRSYCHPIETLVDIFQEFGVATNTFFKPPCVSVYRCGGCCNDEGLECVPTEESNITMQIMRITVPLSQGPKPVTISFLQHNKCECRPKKD
As for B8, the binding result in assay [1], in assay [2] and in assay [3] was “binds” throughout.

B9: 12-11 (ligand)
chain: GQNHHEVVKFMDVYQRSYCHPIETLVDIFQEFGVATNTFFKPPCVSVYRCGGCCNSEGLQCVPTEESNITMQIMRITVPLSQGPKPVTISFLQHNKCECRPKKD
In the case of B9, the binding result in assay [1], in assay [2] and in assay [3] was “binds” each time.

B10: 84-9 (ligand)
chain: AHYNTEILKFMDVYQRSYCHPIETLVDIFQEFGVATNTFFKPSCVPLMRCGGCCNDEGLECVPTEESNITMQIMRITVPLSQGPKPVTISFLQHNKCECRPKKD
In the case of B10, the binding result in assay [1], in assay [2] and in assay [3] was “binds” each time.

B11: 82-11 (ligand)
chain: AHYNTEILKFMDVYQRSYCHPIETLVDIFQEFGVATNTFFKPPCVSVYRCGGCCNSEGLQCVPTEESNITMQIMRITVPLSQGPKPVTISFLQHNKCECRPKKD
Consider B11, for which the binding result in assay [1], in assay [2] and in assay [3] was “binds” throughout.

B12: 84-11 (ligand)
chain: AHYNTEILKFMDVYQRSYCHPIETLVDIFQEFGVATNTFFKPSCVPLMRCGGCCNSEGLQCVPTEESNITMQIMRITVPLSQGPKPVTISFLQHNKCECRPKKD
For the molecule B12, the binding result in assay [1], in assay [2] and in assay [3] was “binds” throughout.

B13: 12-9 (ligand)
chain: GQNHHEVVKFMDVYQRSYCHPIETLVDIFQEFGVATNTFFKPPCVSVYRCGGCCNDEGLECVPTEESNITMQIMRITVPLSQGPKPVTISFLQHNKCECRPKKD
Consider B13, for which the binding result in assay [1] was “binds”; in assay [2], “no binding”; in assay [3], “binds”.

B14: 12-3 (ligand)
chain: GQNHHEVVKFMDVYQRSYCHPIETLVDIFQEFGVATNTFFKPPCVSVYRCGGCCNSEGLQCVPTEESNITMQIMRIKPHQGQHIGEMSFLQHNKCECRPKKD
As to B14, the binding result is reported as “no binding” in assay [1], “binds” in assay [2] and “binds” in assay [3].

B15: 12-5 (ligand)
chain: GQNHHEVVKFMDVYQRSYCHPIETLVDIFQEFGVATNTFFKPPCVSVYRCGGCCNDEGLECVPTEESNITMQIMRIKPHQGQHIGEMSFANHTSCRCMSKLD
For B15, the binding result in assay [1] was “no binding”; in assay [2], “no binding”; in assay [3], “binds”.

B16: 11-1 (ligand)
chain: GQNHHEVVKFMDVYQRSYCHPIETLVDIFQEYPDEIEYIFKPSCVPLMRCGGCCNDEGLECVPTEESNITMQIMRIKPHQGQHIGEMSFLQHNKCECRPKKD
Take B16: the binding result was “no binding” in assay [1], “binds” in assay [2] and “binds” in assay [3].

B17: 12-1 (ligand)
chain: GQNHHEVVKFMDVYQRSYCHPIETLVDIFQEFGVATNTFFKPPCVSVYRCGGCCNDEGLECVPTEESNITMQIMRIKPHQGQHIGEMSFLQHNKCECRPKKD
On to B17, for which the binding result in assay [1], in assay [2] and in assay [3] was “binds” in each case.

B18: 82-7 (ligand)
chain: AHYNTEILKFMDVYQRSYCHPIETLVDIFQEFGVATNTFFKPPCVSVYRCGGCCNSEGLQCVPTEESNITMQIMRIKPHQGQHIGEMSFANHTSCRCMSKLD
In the case of B18, the binding result in assay [1], in assay [2] and in assay [3] was “binds” throughout.

B19: 12-7 (ligand)
chain: GQNHHEVVKFMDVYQRSYCHPIETLVDIFQEFGVATNTFFKPPCVSVYRCGGCCNSEGLQCVPTEESNITMQIMRIKPHQGQHIGEMSFANHTSCRCMSKLD
With B19, the binding result in assay [1], in assay [2] and in assay [3] was “binds” in each case.

B20: 53-3 (ligand)
chain: AHYNTEILKSIDNEWRKTQCMPIETLVDIFQEYPDEIEYIFKPPCVSVYRCGGCCNSEGLQCVPTEESNITMQIMRIKPHQGQHIGEMSFLQHNKCECRPKKD
Regarding B20, the binding result in assay [1], in assay [2] and in assay [3] was “binds” throughout.

B21: 72-7 (ligand)
chain: GQNHHEVVKSIDNEWRKTQCMPREVCIDVGKEFGVATNTFFKPPCVSVYRCGGCCNSEGLQCVPTEESNITMQIMRIKPHQGQHIGEMSFANHTSCRCMSKLD
Consider B21, for which the binding result in assay [1], in assay [2] and in assay [3] was “no binding” each time.

B22: 14-9 (ligand)
chain: GQNHHEVVKFMDVYQRSYCHPIETLVDIFQEFGVATNTFFKPSCVPLMRCGGCCNDEGLECVPTEESNITMQIMRITVPLSQGPKPVTISFLQHNKCECRPKKD
For the molecule B22, the binding result in assay [1], in assay [2] and in assay [3] was “binds” in each case.

The values above are taken from patent US20050267024A1 (published 2005).
